Experimental findings from patent US20120282285A1 (RIGSHOSPITALET, published 2012) are described below.

For assay [1], the target named is T1, Ficolin-3 (human, UniProt O75636 24-299).
T1 construct: Serum Ficolin-3 in the co-precipitations, ELISA and gradient. rFicolin-3 on acetylated BSA in the C4 deposition assays; also called rFicolin-3; recombinant human Ficolin-3
Briefly: 10-30% sucrose gradient of serum; fractions read by western blot. The procedure:
(§1) Normal human serum was subjected to sucrose gradient separation. 0.75 ml serum was loaded onto 40 ml centrifugation columns consisting of 10-30% sucrose gradients buffered in 10 mM Tris, 145 mM NaCl, 3 mM CaCl₂ and human serum albumin at 30 μg/ml. The loaded columns were centrifuged at 150.000×g in vacuum for 24 hours at 4° C. in a L70 Beckmann ultracentrifuge with a SW28 rotor head. 1.5 ml fractions were collected from the bottom and analyzed by specific ELISA or immunoblotting for the following antigens: MAP-1, MASP-1, MASP-2, MASP-3, sMAP, MBL, Ficolin-2 and Ficolin-3. The peaks of the serum IgM (19S) and IgG (7S) were also assessed indicating the molecular […]. Additionally the fractions were analyzed for the capacity to activate exogenously applied C4. […] The C4 deposition was subsequently measured with polyclonal antibodies to C4c (Q 0369, Dako, Glostrup, Denmark).
(§2) In order to investigate the distribution of MAP-1 in relation to associated molecules and to examine how much appears non-associated we subjected normal human serum to density fractionation using a 10-30% sucrose gradient and ultracentrifugation. Subsequently the collected fractions were analyzed for MAP-1, MASP-3, MBL, Ficolin-2 and -3 by ELISA (FIG. 31A) and MAP-1, MASP-1, -2 and -3, sMAP, MBL, Ficolin-2 and -3 by western blotting (FIG. 31B). […]
(Immunoblotting shows a protein as a band on a membrane.)

Assay [2] concerns the target T1, Ficolin-3. Put plainly: 10-30% sucrose gradient of serum; fractions read by ELISA and western blot. As to the method: as §1, §2
A general note: In an ELISA, binding on a coated surface is turned into a signal by an enzyme label.

T1 sequence (O75636 24-299 limits assumed): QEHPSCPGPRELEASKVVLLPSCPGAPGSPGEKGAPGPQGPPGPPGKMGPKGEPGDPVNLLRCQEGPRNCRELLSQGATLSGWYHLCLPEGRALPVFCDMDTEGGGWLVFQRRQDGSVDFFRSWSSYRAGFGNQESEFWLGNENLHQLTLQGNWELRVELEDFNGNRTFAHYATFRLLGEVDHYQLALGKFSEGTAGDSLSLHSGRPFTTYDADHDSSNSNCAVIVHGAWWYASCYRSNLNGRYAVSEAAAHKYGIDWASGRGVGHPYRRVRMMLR

B1: small MBL-associated protein (sMAP) (other)
chain: TPLGPKWPEPVFGRLASPGFPGEYANDQERRWTLTAPPGYRLRLYFTHFDLELSHLCEYDFVKLSSGAKVLATLCGQESTDTERAPGKDTFYSLGSSLDITFRSDYSNEKPFTGFEAFYAAEDIDECQVAPGEAPTCDHHCHNHLGGFYCSCRAGYVLHRNKRTCSEQSL
notes: Serum protein in the sucrose gradient; also called MAp19; MBL-associated plasma protein of 19 kD
B1: in the assay with Ficolin-3 [1], the binding result is given as “binds”.

B2: MBL-Associated Serine Protease-3 (MASP-3) (enzyme)
chain: HTVELNNMFGQIQSPGYPDSYPSDSEVTWNITVPDGFRIKLYFMHFNLESSYLCEYDYVKVETEDQVLATFCGRETTDTEQTPGQEVVLSPGSFMSITFRSDFSNEERFTGFDAHYMAVDVDECKEREDEELSCDHYCHNYIGGYYCSCRFGYILHTDNRTCRVECSDNLFTQRTGVITSPDFPNPYPKSSECLYTIELEEGFMVNLQFEDIFDIEDHPEVPCPYDYIKIKVGPKVLGPFCGEKAPEPISTQSHSVLILFHSDNSGENRGWRLSYRAAGNECPELQPPVHGKIEPSQAKYFFKDQVLVSCDTGYKVLKDNVEMDTFQIECLKDGTWSNKIPTCKIVDCRAPGELEHGLITFSTRNNLTTYKSEIKYSCQEPYYKMLNNNTGIYTCSAQGVWMNKVLGRSLPTCLPECGQPSRSLPSLVKRIIGGRNAEPGLFPWQALIVVEDTSRVPNDKWFGSGALLSASWILTAAHVLRSQRRDTTVIPVSKEHVTVYLGLHDVRDKSGAVNSSAARVVLHPDFNIQNYNHDIALVQLQEPVPLGPHVMPVCLPRLEPEGPAPHMLGLVAGWGISNPNVTVDEIISSGTRTLSDVLQYVKLPVVPHAECKTSYESRSGNYSVTENMFCAGYYEGGKDTCLGDSGGAFVIFDDLSQRWVVQGLVSWGGPEECGSKQVYGVYTKVSNYVDWVWEQMGLPQSVVEPQVER
notes: also called rMASP-3
On to B2, for which the binding result with Ficolin-3 [2] was “binds”.
